The nature of this series: yeast display, Sf9 membrane polyspecificity reagent, FACS + sequencing; frameworks hold sequencing errors. An outline of the steps:
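Galactose-induced (36–48 hours) yeast carrying a synthetic nanobody display library were exposed to 10% biotinylated, detergent-solubilized Sf9 membrane reagent at 4 °C for 1 hour. FACS followed streptavidin microbead enrichment, using low and high (top ~1%) gates for expression (anti-HA) and reagent binding (streptavidin). Colony PCR, MiSeq 2 × 250 sequencing and CDR-length filtering followed. Labels for polyreactivity reflect the gate of origin.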
“QVQLVESGGGLVQAGGSLRLSCAASGSTFYIYAMGWYRQAPGKERELVAAITWSGSRTYYADSVKGRFTISRDNAKNTVYLQMNSLKPEDTAVYYCAARSYRNNRYKEDYWGQGTQVTVSS”: the “polyreactivity (PSR sort gate)” value is “high polyreactivity”.
To “QVQLVESGGGLVQAGGSLRLSCAASGSTFVFYAMGWYRQAPGKERELVAGISDSGGNTYYADSVKGRFTISRDNAKNTVYLQMNSLKPEDTAVYYCATRYPYYPFYVGIYELDYWGQGTQVTVSS” belongs “low polyreactivity”; to “QVQLVESGGGLVQAGGSLRLSCAASGITFGYYAMGWSRQAPGKERELVAAIRSSGGSTYYADSVKGRFTISRDNAKNNVYLQMNSLKPEDTAVYYCNARYRKSSRPGYEPYERYYWGQGTQVTVSS”, “high polyreactivity”.
Regarding “QVQLVESGGGLVQAGGSLRLSCAASGYTFKRYAMGWYRQAPGKERELVAAISQSGTNTYYADSVKGRFTISRDNAKNTVYLQMNSLKPEDTAVYYCAAKPPRRYQLMDYWGQGTQVTVSS”, the “polyreactivity (PSR sort gate)” value is “high polyreactivity”.
In the case of “QVQLVESGGGLVQAGGRLRLSCAASGRTYYTYAMGWYRQAPGKERELVAAITWDGGSTYYADSVKGRFTISRDNAKNTVYLQMNSLKPEDTAVYYCADDLYDTYGTFDYWGQGTQVTVSS” it was “low polyreactivity”; in that of “QVQLVESGGGLVQAGGSLRLSCAASGFTFRHNVMGWYRQAPGKERELVATITWSGGRTSYADSVKGRFTISRDNAKNTVYLQMKSLKPEDTAVYYCAARFFSYSQYAYNYWGQGTQVTVSS”, “high polyreactivity”; in that of “QVQLVESGGGLVQAGGSLRLSCAASGSIFAYNAMGWYRQAPGKERELVAAISVGGGRTYYADSVKGRFTISRDNAKNTVYLQMNSLKPEDTAVYYCAASSTAKRYYWGQGTQVTVSS”, “high polyreactivity”.
Turning to “QFQLVESGGGLVQAGGSLRLSCAASGSTFYTNAMGWYRQAPGKERELVAAITSRTGSTYYADSVKGRFTISRDNAKNTVYLQMNSLKPEDTAVYYCAADIYDWGGHYEYWGQGTQVTVSS”, the “polyreactivity (PSR sort gate)” value was “high polyreactivity”.
In the case of “QVQLVESGGGLVQAGGSLRLSCAASGFIFDDNAMGWYRQAPGKERELVAAITSGGGTTYYADSVKGRFTISRDTAKNTVYLQMNSLKPEDTAVYYCNAVPSQHDEFDYWGQGTQVTVSS” it was “low polyreactivity”; in that of “QVQLVESGGGLVQAGGSLRLSCAASGLTFYLYAMGWYRQAPGKERELVAAITSGGSTYYADSVKGRFTISRDNAKNTVYLQMNSLKPEDTAVYYCNKLTYGRVWDHHYDYWGQVTQVTVSS”, “low polyreactivity”.
As to “QVQLVESGGGLVQAGGSLRLSCAASGRTFWYYAMGWYRQAPGKEREFVAAISWSGGSTYYADSVKGRFTISRDNAKNTVYLQMNSLKPEDTAVYYCAADGYDSSQFYYWGQGTQVTVSS”, the “polyreactivity (PSR sort gate)” value is on record as “low polyreactivity”.
For the sequence “QVQLVESGVGLVQAGGSLRLSCASSGYTFFYYSMGWYRQAPGKEREFVAAISTGTGSTYYADSVKGRFTISRDNAKNTVYLQMNSLKPEDTAVYYCAADGTLYYFGLEYDYWGQGTQVTVSS”, the “polyreactivity (PSR sort gate)” value is “low polyreactivity”.
On to “QVQLVESGGGLVQAGGSLRLSCAASGRIFSVNAMGWYRQAPGNERELVAAMTSGDSTNYADSVKGRFTISRDNAKNTVYLQMNSLKPEDNAVYYCNARGSQELWRRKWYHTEYDYWGQGTQVTVSS”, for which the “polyreactivity (PSR sort gate)” value is given as “low polyreactivity”.
For the sequence “QVQLVESGGGLVQAGVSLRLSCAASMGWYRQAPGKERELVAAITRGGTTYYADSVQGRFTISRDNAKNTVYLQMNSLKPEDTAVYYGAKAGPGFLYDHWGQGTQVTVSS”, the “polyreactivity (PSR sort gate)” value is “high polyreactivity”.
In the case of “QVQLVESGGGLVQAGGSLRLSSAASGSIFGDYVMGWSRQAPGKERELVAAINRGGSTYYADSVKGRFTISRDNAKNTVYLHMNSLKPEDTAVYYCAAGYPSWYYGDPYDSWGQGTQVTVSS” it was “low polyreactivity”.
To “QVQLVESGGGLVQAGGSLRLSCAASGNTFHPYAMGWYRQAPGKERELVAAITKSGGSTYYADSVKGRFTISRDNAKNTVYLQMNSLKPEDTAFYYCAAESYIEYYLKYDYWGQGSQVTVSS” belongs “low polyreactivity”; to “QVQLVESGGGLVQAGGSLRLSCAASGSTISFLIMGWYRQAPGKERELVAAISRSGGRTYYADSVKGRFTISRDNAKNTVYFQMNSLKPEDTAVYYCAADYVSVDRIRYGYWGQGTQVTVSS”, “high polyreactivity”; to “QVQLVESGGGLVHAGGSLRLSCAASGSTFGRYTMGWYRQAPGKERELVAAISYSSGRTYYADSVKGRFTISRDNGKNTVYLQMNSLKAEDSAVYYCAAVSRGRGEYDYWGQGTQVTVSS”, “high polyreactivity”.
Turning to “QVQLVESGGGLVQAGGSLRLSCPASGFNFSHNAMGWYRQAPGKERELVAAITWSGAITSYADSVKGRFTISRDNAKNTVYLQMNILKPEDTAVYYCAKLWSWDLSRYGPRVDYWGQGTQVTVSS”, the “polyreactivity (PSR sort gate)” value is “low polyreactivity”.
In the case of “QVQLVESGGGLVQAGGSLRLSCAASGRTFRYNTMGWYRQAPGKERELVASISWGGGSTYYADSVKGRFTISRDNAKNTVYLQMNSLKPEDTAVYYCAARRWGQFRFEYWGQGTQVTVSS” it was “high polyreactivity”; in that of “QVQLVESGGGLVQAGGSLRLSCAASGITFRRYTMGWYRQAPGKERELVAAITTNAGSTYYADSVKGRFTISRDNAKNTVYLQMNSLKPEDTAVYYCAARWYYPYRTRYSSSYGYWGQGTQVTVSS”, “high polyreactivity”.
“QVQHVESGGGLVQAGGRLRLTCPASGSTVGYYAMGWYRQAPGKEREFVATITFGGSTHYADSVKGRFTISRDNAKYTVYLQMNSLKPEDTAFYYCAKRYYTNRHSRAFGYWGQGTQVTVSS”: the “polyreactivity (PSR sort gate)” value is reported as “high polyreactivity”.
To “QVQLVESGGGLVQAGGSLRLSCAASGRIFDDNTMGWYRQAPGKERELVAVITSGGSTNYADSVKGRFTISRDNAKNTVYLQMNSLKPVDTAVYYCATEPGGYRFDDRAFQYGYWGQGTQVTVSS” belongs “low polyreactivity”; to “QVQLVESGGGLVQAGGSLRLSCAASGSTFADNAMGWYRQAPGKERELVASISSSATSTYYADSVKGRFTISRDNAKNTVYLQMNSLKPEDSAVYYCSKGRPWYRGDFWGQGTQVTVSS”, “low polyreactivity”; to “QVQLVESGEGLVQARGSLRLSCAASGYTFLGYAMGWYRQAPGKERELVAAINRSGSSTYYADSVKGRFTISRDNAKNTVYLQMNSLKPEDTAVYYCNARSGNRYGPRYDYWGQGTKVTVSS”, “high polyreactivity”.
In the case of “QVQLVESGGGLVQAGGSLRLSCAASGRIFPPNAMGWYRQAPGKERELVAAITRGGSTNYADSVKGRFTISRDNAKNTVYLQMNSLKPEDTAVYYCAARGLRRQAPFYYWGQGTQVTVSS” it was “high polyreactivity”; in that of “QVQLVESGGGLVQAGGSLRLTCAASGSIFTGYAMRCYRQAPGTERELVAAIRTRGGSPYYADSVKGRFTISRDNAKNTVYLQMNSLKPEDTALYYCAKRYYGWYGNFDYWGQGTQVTVSS”, “high polyreactivity”; in that of “QVQLVESGGGLVQAGGSLRLSCAASGSIFTPYVMGWYRQAPGKERELVAAISKRGTRTYYADSVTGRFTISRDNAKNTVYFQMNSLKPEDTAVYYCNAAVDYGSEHDYWGQGTQVTVSS”, “high polyreactivity”.
As to “QVQLVESGGGLVQAGGSLRLSCAASGRTFASNAMGWYRQAPGKERELVAAITRGGSTYYADSVKGRFTISRDNAKNTVYLQMNSLKPEDTAVYYCAADRWWYQNEVDYWGQGTQVTVSS”, the “polyreactivity (PSR sort gate)” value is recorded as “low polyreactivity”.
In the case of “QVKLVESGGGLVQAGGSLRLSCPASGITFVYYAMGGYRQAPGKERELVAAISSAGSSTYYADSVKGRFTISRDNAKNTVYLQMNSLKPEDTAVYYCAATYYVPRLQWMDYWGQGTQVTVSS” it was “low polyreactivity”; in that of “QVQLVESGGGLVQAGGSLRLSCAASGYIFYRNAMGWYRQAPGKEREFVAAISSSGVSTYYADSVKGRFTISRDTAKNTVYLQMNSLKPEDTAVYYCNTGYIFSSFYSSKYGYWGQGTQVTVSS”, “low polyreactivity”.
To “QVQLVESGGGLVQAGGSLRLSCAASGSIFYRNAMGWYRQAPGKERELVAAISGRGGSTYYADSVKGRFTISRDYAKNTVYLQMYSLKPEDTAVYYCAKDHYRERKYDYWGQGTQVTVSS” belongs “low polyreactivity”; to “QVQLVESGGGLEQAGGSLRISCAASVSTVRFNAMGWYIQEPGKERQLVAVIRWRGGTTYYADSVKGRFTISRDNAKNTVYLQMNSLKPEDPAVYYCNADYWFSYTWHGSYTVGYWGQGTQVTVSS”, “high polyreactivity”.
Turning to “QVQLVESGGGLVQAGGSLSLICAASRLTFYLYAMGWYRQAPGKERELLAAISYSGGSTYYADSVKGRFTISRDNAKNTVYLQMNSLKPEDTAVYYCNALRAGTDSRRTYGSTYGYWGQGTQVTVSS”, the “polyreactivity (PSR sort gate)” value was “high polyreactivity”.
Consider “QVQLVESGGGLVQAGGSLRLSCAASGFTFRYYAMVWYRQAPGKERELVAAITSGDSTYYADSVKGLFTISRDNAKNTVYLQMNSLKPEDTAVYYCAAYSWLFEGYEYWGQGTIVTVSS”, for which the “polyreactivity (PSR sort gate)” value is reported as “high polyreactivity”.
To “QVQLVESGGGLVQAGGSLRLSCAASGSIFGLNAMGWYRQAPGKERELVARISTGSSTNYADSVKGRFTISRDHAKNSVYLQMNSLKPEDTAVYYCNADYPYYPYRENYWGQGTQVTVSS” belongs “low polyreactivity”; to “QVQLVESGGGLVQAVGSLRLSCAASGRIFYPYAMGWYRQAPGKERELVAVITSGTGTYYADSVKGRFTISRDNAKNTVYLQMNSLKQEDTAVYYCAADRWYYRHRSSSYGYDYWGQGTQVTVSS”, “high polyreactivity”.
“QDQLVDSGGGLVQAGGSLRLSCAASGRTFSPNTMGWYRQAPGKEREFVAAITASGDSTYYADSVKGRFTISRDNEKNTVYLQMNSLKPEDTAVYYCATDSNWYWGFNYWGQGTQVTVSS”: the “polyreactivity (PSR sort gate)” value is on record as “low polyreactivity”.
In the case of “QVQLVESGGGVVQAGGTLRLSCAASGSLFPYNVMGWYRQAPGKERELVAVITGSTGRTYYADSVKGRFTISRDNAKNTVYLQMNSLKPEDTAVYYCAKRSYWAPYDYWGQGTQVTVSS” it was “high polyreactivity”; in that of “QVQLVESGGGLVQAGGSLRLSCAASGSTFLLNAMGWYRQAPGKERELVAAITSSGGTNYADSVKGRFTISRDNAKNTVYLQMISLKPEDTAVYYCNTRYSPGYQGTEVDYWGQGTQVTVSS”, “low polyreactivity”; in that of “QVQLVESGGGLVQAGGSLRLSCAASGIIFTPYNMGWYRQAPGKERELVAASTGSGGSTYYADSVKGRFTISRDNAKNTVDLQMNSLKPEDTAVYYCAAYKQYRFYRYDYWGQGTQVTVSS”, “high polyreactivity”.
